# B1: SSAP_131: SEQ ID NO: 300; Thermoclostridium stercorarium (protein, listed as Thermoclostridium stercorarium)
# chain: TTVNQTELKNKLAEKAKTPAKTGNTVFDLIRKMEPEIKRALPKQISPERFARIAMTAVRNTPKLQACEPISFIAALMQSAQLGLEPNTPLGQAYLIPYGKEVQFQLGYQGMLTLAYRTGEYQSIYAMPVYANDEFEYEYGLNEKLVHKPAPDPEGEPIYYYAVYKLKNGGHGFVVMSRQQIERHRDKYSPSAKQGKFSPWNTDFDSMAKKTVLKQLLKYAPKSVEFATQIAQDETIKTEIAEDMTEVQGIEVEYEATDDQENQENQEQED
# B2: SSAP_297: SEQ ID NO: 466; Dysgonomonas capnocytophagoides (protein)
# chain: STQQVQQQTKPLSLANFLNAPSTANFLKETLAEKKSEFVSNLIALCDADPKLAQCDPAQLMKCAMNATSLNLPLNKNLGYAYVIAYKGVPSFQIGYKGLIQLAIRTGQYKFINATEIREGEIRHNKITGEVIFNGEKPDAPIVGYMSYLELVNGFTASLYMTEEQIEQHALRFSQTYKNDKQYRSSTSKWSDPLARPTMCKKTVLKLLLGTYGLMTTEFAKALDSDSDDEVSTSGHRFEEAEIVQQGEPNEEQSDEPKRMEI
# modifications: Dysgonomonas capnocytophagoides
# B3: SSAP_80: SEQ ID NO: 249 (protein)
# chain: GHLVSKTEQDYIKQHYAKGATDQEFEHFIGVCRARGLNPAANQIYFVKYRSKDGPAKPAFILSIDSLRLIAHRTGDYAGCSEPIFTDGGKACTVTVRRNLKSGETGNFSGMAFYDEQVQQKNGRPTSFWQSKPRTMLEKCAEAKALRKAFPQDLGQFYIREEMPPQYDEPIQVHKPKALEEPRFSKSDLSRRKGLNRKLSALGVDPSRFDEVATFLDGTPDRELGQKLKLWLKEAGYGVNQ
# B4: SSAP_144: SEQ ID NO: 313; Romboutsia weinsteinii (protein, listed as Romboutsia weinsteinii)
# chain: TNLKNTLKNKEAKGNNLAINPSYAMKQLMIKMKGEITSALPKELCSERFQRVALTAFNSNPKLQNCAPMTFIAAMMQSDQLGLEPNTPLGQAYLIPYKVKGIDKVQFQIGYKGLLELAHRSGRLKTLYAHEVRENDEFDIDYGLEQRLIHKPLLKGNRGEVIGYYAVYHLEHNGYSFVFMTYDEVLEHGKKYSKSFEGGIWEKEFDSMAKKTVIKKLLKYAPLSIEIQKAINFDESVKGSIDSDMLLVDKADESIDVEGNVLNQRGIKYGCI
# B5: SSAP_79: SEQ ID NO: 248 (protein)
# chain: EALLLRRWQMGNLTKTTGFALAPQNLEQAMQLATMICNSQLAPNNYKGKPEDTLVAMMMGHELGLNPLQSIQNIAVINGRPSIYGDALLALVQNSPAFGGIQESFDEDTMTATCTVWRKGGEKHTQHYSKDDADTAGLWGKQGPWKQHPKRMLAMRARGFAVRNQFADALAGLVTREEAEDMEKEINPTPAPQAQSKRIGQKQSRTQYSESDFNENFPKWKAAVESGKKTSEQIISMVSTKGDLTQGMIEAIESIEAGEPA
# B6: SSAP_161: SEQ ID NO: 330; Solobacterium moorei (protein, listed as Solobacterium moorei)
# chain: TEIKAAKAPATVAKAGVSTQNKTIKDYITIMKPEIEKALPSTITPERFTRITLSAVSNNPKLQACSPSTFLSAMMQSAQLGLEPNTPLGQAYLIPYGNSCQFQLGYKGLLQLAYNSGQIKTIRTETVYENDEFKYELGLHSDLVHVPAMSNRGNPTAYYAVIEYTNGGYGFEVMSHDDVLEHAKKFSKTFNNGPWQSDFESMAKKTVLKQALKYAPLSTELVSKINTDETVKSSISDHMEEVKNDIDLSQIIDAETGEIHE
# B7: SSAP_311: SEQ ID NO: 480; Paenibacillus graminis (protein, listed as Paenibacillus graminis)
# chain: TVAIETQVQETLDRILDSKHDALPSDFKKKRFSENCKVYVAEEKDLHKYTIDDIVANLFKGAVLGLDFLAKECHLITGGVDLKFQTDYKGEMKLTKKYSVRPMLDVYAKNVREGDIFREQIIEGRPAIHFDPLPFNASKIIGSFAIALFQDGGMVYESIPAGEIEEIRKNYGKSLGDAWEKSQGEMYKRTVLRRLCKTIETDFDAEQRLIYEMGGAFEFTKQPTRSRQQSPFNPPEESEVIQNDRAAETDQG
# B8: SSAP_63: SEQ ID NO: 232 (protein)
# chain: SELQQAAQGQADAGPVQVIYSHAKEIQNVLAKGTDMDRWLQMARLAVMRDPNLVNAAKRDPGSLMQAMLDCAEKGHIPGTEDYYLVPRKGGIQGMESWKGIAKRIMRSGRYQSIVAEVVYEGEDFDFNPNTMDRPVHQIKYMARTSGQPVLSYAYAVDHEGKPSTIAVADPRYIAKVKANSKGTVWADWDEAMYKKTAVKMLVDYVDTSSTDRRGVSTVQVDGPVGTFIDGVLEIEGGDQ
# B9: SSAP_7: SEQ ID NO: 176 (protein)
# chain: STNDELKNKLANKQNGGQVASAQSLGLKGLLEAPTMRKKFESVLDKKAPQFLTSLLNLYNGDDYLQKTDPMTVVTSAMVAATLDLPIDKNLGYAWIVPYKGRAQFQLGYKGYIQLALRTGQYKSINVIEVRDGELLKWNRLTEEIELDLDNNTSEKVIGYCGYFQLINGFEKTVYWTRKEIEAHKKKFSKSDFGWKKDYDAMAKKTVLRNMLSKWGILSIDMQTAVTEDEAEPRERKDVTEDESIPDIIDAPITPSDTLEAGSEVQGSMI
# B10: SSAP_255: SEQ ID NO: 424; Bacteroides eggerthii (protein, listed as Bacteroides eggerthii)
# chain: GTVTTVPQLKSMLANENVKSRFKEILGKKAPGFISSIVAVANSNTLLQKAEPQSIMNAAVIAATLDLPINPNLGFAYIIPYGNQASFQIGYKGMTQLAMRSGQYKTINVTEVYEGEIKSENRFTGEYTFGERKSDKIVGYMAYFSLTNGFEKYMYMSREECEKHGKKFSQTYKRGGGLWATDFDSMSKKTVLKMLISKYGILSIDMQRAQTFDQAVVKDDLVEKNIDEAEVSYEDNPTNADVRRNAMKEALEEAEVVDETTGEIFNQPAQ
# Test system: gene editing with Cas9 and dCas9
# Assay: Screen of 322 new SSAP proteins, activity across all experiments (Cas9 and dCas9, Table 5)
# Type: cell-based
# Design: scale not given here
# Conditions: not given
# Procedure, shortened: (§1)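 The 322 SSAP proteins were found in sequence data and then synthesized. Each was screened for gene editing activity when paired with Cas9 and with dCas9.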
row,Molecule,Activity across all experiments
1,B1,−4.137
2,B2,−6.274
3,B3,−5.479
4,B4,−4.771
5,B5,−4.489
6,B6,−0.857
7,B7,−6.749
8,B8,−3.427
9,B9,−7.537
10,B10,−3.873

# Test system: gene editing with Cas9
# Assay: Screen of 322 new SSAP proteins, gene editing activity with Cas9 (Table 5)
# Type: cell-based
# Design: Cas9 with SSAP activity: scale not given here
# Conditions: not given
# Procedure, shortened: as §1
row,Molecule,Cas9 with SSAP activity
1,B1,−1.273
2,B2,−5.364
3,B3,−3.757
4,B4,−2.249
5,B5,−1.629
6,B6,−1.623
7,B7,−6.123
8,B8,0.570
9,B9,−7.628
10,B10,−0.273

# Same assay, conditions: normalized
row,Molecule,Cas9 with SSAP activity (normalized)
1,B1,−0.894
2,B2,−1.014
3,B3,−0.629
4,B4,−0.663
5,B5,−2.086
6,B6,−0.850
7,B7,−0.874
8,B8,2.381
9,B9,−1.701
10,B10,−0.044

# Test system: gene editing with dCas9
# Assay: Screen of 322 new SSAP proteins, gene editing activity with dCas9 (Table 5)
# Type: cell-based
# Design: dCas9 with SSAP activity: scale not given here
# Conditions: not given
# Procedure, shortened: as §1
row,Molecule,dCas9 with SSAP activity
1,B1,−7.001
2,B2,−7.184
3,B3,−7.200
4,B4,−7.293
5,B5,−7.349
6,B6,−0.092
7,B7,−7.375
8,B8,−7.424
9,B9,−7.447
10,B10,−7.473

# Same assay, conditions: normalized
row,Molecule,dCas9 with SSAP activity (normalized)
1,B1,−0.946
2,B2,−1.057
3,B3,−1.353
4,B4,−1.765
5,B5,−2.203
6,B6,−0.051
7,B7,−1.526
8,B8,−1.335
9,B9,−1.443
